Data on one molecule can be found in publication PMC7784771.

As usually defined, the Kd is the constant that tells how readily two partners part at equilibrium. High values mean a looser complex, low ones a tighter complex.

The target of one series is TDP-43 RRM1-RRM2 (human, UniProt Q13148 101-265). The series is described as follows: fluorescence polarization. On the technique in general: Fluorescence polarisation rises when a labelled molecule tumbles more slowly, as on binding a larger partner.
The target of the next series is TDP-43 RRM1 (human, UniProt Q13148 101-191). The series is described as follows: fluorescence polarization.
Chain of TDP-43 RRM1 (Q13148 101-191): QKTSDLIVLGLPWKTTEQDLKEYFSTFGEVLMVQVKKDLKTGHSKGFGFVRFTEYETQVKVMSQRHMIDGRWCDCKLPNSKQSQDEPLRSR

Chain of TDP-43 RRM1-RRM2 (Q13148 101-265): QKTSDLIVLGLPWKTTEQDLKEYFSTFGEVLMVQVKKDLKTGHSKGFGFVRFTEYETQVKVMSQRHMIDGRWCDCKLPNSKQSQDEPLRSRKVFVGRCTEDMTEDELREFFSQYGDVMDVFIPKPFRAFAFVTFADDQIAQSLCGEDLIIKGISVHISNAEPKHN

B1: (UG)6 RNA (ssRNA)
RNA: UGUGUGUGUGUG
Take B1: the Kd amounted to 0.0095 ± 0.0013 µM with TDP-43 RRM1-RRM2 and 0.0569 ± 0.0021 µM with TDP-43 RRM1.
